Data on one protein can be found in patent publication US20260201355A1 (GENKORE, published 2026).

The data set concerns the molecule itself. The data set can be described thus: size exclusion chromatography (Superdex 200) of the CWCas12f-gRNA ribonucleoprotein complex. The procedure:
Using the method for production of ribonucleoprotein particles in Example 1.7, the CWCas12f protein was incubated with the gRNA to produce a ribonucleoprotein complex. The ribonucleoprotein complex was analyzed by size exclusion chromatography using a Superdex 200 column.
A general note: SEC sorts molecules by how far they enter the pores of the column.

B1: CWCas12f protein (enzyme)
chain: MGEKSSRRRRNGKSGAWTAAITSCVGGKMAKNTITKTLKLRIVRPYNSAEVEKIVADEKNNREKIALEKNKDKVKEACSKHLKVAAYCTTQVERNACLFCKARKLDDKFYQKLRGQFPDAVFWQEISEIFRQLQKQAAEIYNQSLIELYYEIFIKGKGIANASSVEHYLSDVCYTRAAELFKNAAIASGLRSKIKSNFRLKELKNMKSGLPTTKSDNFPIPLVKQKGGQYTGFEISNHNSDFIIKIPFGRWQVKKEIDKYRPWEKFDFEQVQKSPKPISLLLSTQRRKRNKGWSKDEGTEAEIKKVMNGDYQTSYIEVKRGSKIGEKSAWMLNLSIDVPKIDKGVDPSIIGGIDVGVKSPLVCAINNAFSRYSISDNDLFHFNKKMFARRRILLKKNRHKRAGHGAKNKLKPITILTEKSERFRKKLIERWACEIADFFIKNKVGTVQMENLESMKRKEDSYFNIRLRGFWPYAEMQNKIEFKLKQYGIEIRKVAPNNTSKTCSKCGHLNNYFNFEYRKKNKFPHFKCEKCNFKENADYNAALNISNPKLKSTKEEP
notes: Recombinant protein purified from E. coli and incubated with engineered sgRNA to form the ribonucleoprotein before size exclusion chromatography; The complex also contains the sgRNA, which is not a protein; also called TnpB; wild-type CWCas12f
Regarding B1, the binding result is “binds”.
